Measured values taken from the supplement of paper PMC10567573.

B1: GOLPH3 (parent)
chain: FAPLLDEQYDLATKRVRQLLDLDP
B2: WDR41 (parent)
chain: WTMQAYERNFWDPSPQLDTQQEIK

Variants of: B1
Experiment: protein stability index of a GFP-peptide fusion (GPS, HEK-293T) (PSI 1-6); higher = more stable
Details: c terminus: a fixed tail appended
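Further: lentivirally expressed fusions sorted by FACS into six bins by GFP to DsRed ratio, PSI derived from sequencing read proportions per bin multiplied by bin number.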

Protein stability index: each site, then its substitutions
P24: H 3.6, I 1.38, L 2.11, M 2, N 2.46, Q 2.33, R 2.28, S 1.48, T 2.3, V 2.7, W 1.29, Y 1.45

Variants of: B2
Experiment: as above
Details: c terminus: a fixed tail appended

Protein stability index, by site and new letter:
W1: A 3.77, C 2.3, D 5.58, E 4.41, F 2.44, G 4.73, H 3.13, I 3.35, K 4.15, L 3.9, M 3.77, N 4.46, P 4.6, Q 4.81, R 4.08, S 4.51, T 4.25, V 3.47, Y 3.58
T2: A 2.01, C 2.15, E 3.75, F 1.71, G 2.93, H 1.89, I 1.62, L 1.69, M 2.14, N 2.11, P 3.82, Q 2.89, R 2.91, S 2, V 2.14, W 2.15, Y 2.16
M3: A 2.44, C 1.97, D 3.96, E 3.89, F 2.07, G 2.46, H 2.63, I 2.14, K 2.96, L 2.69, N 2.34, Q 3.07, S 1.79, T 2.86, V 3.16, W 2.77, Y 2.24
Q4: A 2.23, C 2.27, D 2.26, E 2.05, F 2.38, G 3.34, H 1.89, I 3.51, K 1.5, L 2.35, M 2.92, N 1.67, P 3.21, R 1.8, T 1.95, V 2.25, W 1.72, Y 2.42
A5: C 2.51, D 3.33, E 3.65, F 1.91, G 3.53, H 3.47, I 1.68, K 2.96, L 2.66, M 2.71, N 3.18, P 2.49, Q 2.85, R 3.25, S 2.75, T 2.57, V 2.12, Y 2.18
Y6: C 2.87, D 3.34, E 3.19, F 2.58, G 2.86, H 1.92, I 2.67, K 3.06, L 2.98, M 3.17, N 2.93, P 2.95, Q 2.83, R 3.58, S 2.78, T 2.83, V 2.79
E7: A 2.02, C 1.77, D 3.25, F 2.88, G 2.7, H 2.32, I 1.92, K 2.94, L 3.28, M 1.93, N 3.04, P 2.79, R 2.86, S 2.45, T 2.72, V 2.88, W 2.39, Y 2.26
R8: A 2.52, C 2.59, D 3.9, F 2.54, G 2.59, H 3.01, K 2.86, L 2.42, N 3.41, P 3.77, Q 3.26, S 3.21, T 2.95, V 2.57, W 2.4, Y 2.52
N9: A 2.08, C 1.94, D 3.69, E 3.29, F 2.12, G 2.64, H 1.6, I 2.04, K 1.94, L 1.35, M 1.45, P 2.71, Q 1.64, R 1.63, S 2.46, T 2.52, W 1.59, Y 2.08
F10: A 3.23, C 3.52, D 4.7, E 3.92, G 3.25, H 4.14, I 3.58, K 3.72, L 3.95, M 4.03, N 3.7, P 3.65, Q 4.61, R 3.55, S 3.95, T 3.89, V 3.68, W 2.77, Y 3.38
W11: A 4.26, C 3.66, D 4.47, E 4.57, F 3.15, G 3.94, H 4.04, I 3.91, K 4.75, L 4.43, M 3.58, N 4.21, P 3.97, Q 3.93, R 4.47, S 3.93, T 3.93, V 3.54, Y 3.5
D12: C 2.25, E 2.31, F 3.8, G 1.96, H 2.73, I 2.15, K 2.06, L 3.49, M 2.93, N 3.51, P 3.31, Q 1.37, R 3.92, S 2.51, V 3.8, Y 1.4
P13: A 2.11, C 2.31, D 3.07, E 3.17, F 1.82, G 2.1, H 2.33, I 2.6, K 3.44, L 3.3, M 2.34, N 2.29, Q 2.65, R 3.01, S 3.46, T 1.56, V 2.04, W 1.76, Y 2.26
S14: A 3.06, C 2.59, D 3.26, E 3.22, F 2.56, G 3.05, H 1.94, I 2.17, K 2.09, L 2.7, M 2.47, N 2.74, P 3.16, Q 2.76, R 2.37, T 2.89, V 2.58, W 2.07, Y 2.23
P15: A 2.82, C 2.3, D 3.03, F 1.96, H 2.56, I 2.15, K 2.43, L 2.3, M 2.7, N 2.6, Q 2.08, R 1.99, S 2.02, T 3.12, V 2.19, W 1.75, Y 1.81
Q16: A 2.24, C 2.17, D 2.65, E 2.64, F 2.5, G 2.83, H 2.01, I 2.33, K 2.42, L 2.42, M 1.46, N 2.2, P 2.4, R 2.14, S 1.82, T 2.67, V 2.03, W 1.4, Y 1.68
L17: A 2.6, C 2.58, D 3.56, E 2.9, F 2.94, G 3.22, H 3.32, I 2.25, K 2.84, M 3.2, N 2.8, P 2.9, Q 3.18, R 3.23, S 2.68, T 2.31, V 2.75, W 2.37, Y 2.49
D18: A 2.32, C 1.95, E 2.7, F 2.14, G 2.56, H 2.2, I 2.28, K 2.16, L 2.63, M 2.19, N 2.17, P 2.24, Q 2.34, R 2.02, S 2.23, T 2.44, V 2.63
